# Reference: publication PMC8626509
# Values joined by “and” are separate entries in the source; they are usually repeats but may differ in a detail not shown here. Equal entries are not always repeated.
# Assays:
# Glu60 = Glu60 (UniProt position 61, EYLAAEVLELA); test: NMR; details: 303 K; 200 mM (adjusted with NaCl); 20 mM sodium acetate (pH 4.4-5.1), 20 mM MES (pH 5.4-6.5), 20 mM sodium phosphate (pH 6.8-7.9), 20 mM CHES (pH 9.1); folded free H2A-H2B heterodimer
# Asp89 = Asp89 (UniProt position 90, LAIRNDEELNK); test: NMR; details: 303 K; 200 mM (adjusted with NaCl); 20 mM acetate pH 4.5, 5.1; 20 mM MES pH 5.6, 6.0, 6.5; 20 mM phosphate pH 6.8, 7.5, 7.9; 20 mM CHES pH 9.1; folded free H2A-H2B heterodimer (150 uM)
# Glu55 = Glu55 (UniProt position 56, LAAVMEYLAAE); test: NMR; details: 303 K, 200 mM (adjusted with NaCl)
# Glu63 = Glu63 (UniProt position 64, AAEVLELAGNA); test: NMR; details: 303 K; 200 mM (adjusted with NaCl); 20 mM sodium acetate (pH 4.4-5.1), 20 mM MES (pH 5.4-6.5), 20 mM sodium phosphate (pH 6.8-7.9), 20 mM CHES (pH 9.1); folded free H2A-H2B heterodimer
# Glu91 = Glu91 (UniProt position 92, IRNDEELNKLL); test: NMR; details: 303 K, 200 mM (adjusted with NaCl)
# Glu90 = Glu90 (UniProt position 91, AIRNDEELNKL); test: NMR; details: 303 K; 200 mM (adjusted with NaCl); 20 mM sodium acetate (pH 4.4-5.1), 20 mM MES (pH 5.4-6.5), 20 mM sodium phosphate (pH 6.8-7.9), 20 mM CHES (pH 9.1); folded free H2A-H2B heterodimer
# His106 = His106 (UniProt position 107, GELAKHAVSEG); test: NMR; details: 303 K; 200 mM (adjusted with NaCl); 20 mM acetate pH 4.4, 5.0; 20 mM MES pH 5.4, 5.8, 6.2; 20 mM phosphate pH 6.8, 7.1, 7.5; folded free H2A-H2B heterodimer (150 uM)
# His79 = His79 (UniProt position 80, ASRLAHYNKRS); test: NMR; details: 303 K; 200 mM (adjusted with NaCl); 20 mM acetate pH 4.4, 5.0; 20 mM MES pH 5.4, 5.8, 6.2; 20 mM phosphate pH 6.8, 7.1, 7.5; folded free H2A-H2B heterodimer (150 uM)
# [1] = 20 mM sodium acetate (pH 4.4-5.1), 20 mM MES (pH 5.4-6.5), 20 mM sodium phosphate (pH 6.8-7.9), 20 mM CHES (pH 9.1), folded free H2A-H2B heterodimer
Substance,pKa (Glu60),pKa (Asp89),"pKa (Glu55; 20 mM acetate pH 4.5, 5.1, 20 mM MES pH 5.6, 6.0, 6.5, 20 mM phosphate pH 6.8, 7.5, 7.9, 20 mM CHES pH 9.1, folded free H2A-H2B heterodimer (150 uM))",pKa (Glu55; [1]),pKa (Glu63),"pKa (Glu91; 20 mM acetate pH 4.4, 5.0, 20 mM MES pH 5.4, 5.8, 6.2, 20 mM phosphate pH 6.8, 7.1, 7.5, folded free H2A-H2B heterodimer (150 uM))",pKa (Glu91; [1]),pKa (Glu90),pKa (His106),pKa (His79),pKa (His46)
Histone H2A (in the free H2A-H2B heterodimer) (Drosophila melanogaster),< 5,5.51 ± 0.11 [4.37–6.07] and 5.02 ± 0.28 [4.61–5.61] and 5.3,4.32 ± 0.08 [4.08–4.78],< 5,< 5,4.36 ± 0.06 [3.89–4.79],< 5,< 5,,,
Histone H2B (in the free H2A-H2B heterodimer) (Drosophila melanogaster),,,,,,,,,6.52 ± 0.05 [6.23–6.93],6.7,5.86 ± 0.03 [5.66–6.06] and 5.64 ± 0.02 [5.54–5.74] and 5.75 ± 0.03 [5.52–5.92]
